Consider 3 molecules from patent US20140094415A1.

Assay [1] addresses T1, HIS-PDZ1-2 protein (PSD-95 PDZ1-2 tandem) (human), P78352. As to the kind of experiment: fluorescence polarization, heterologous competition against AB143 probe. In general terms: Fluorescence polarisation rises when a labelled molecule tumbles more slowly, as on binding a larger partner.
The target of assay [2] is T1, HIS-PDZ1-2 protein (PSD-95 PDZ1-2 …). The description is as above. The source holds these as a separate data set.
For assay [3] the target is unchanged. The assay is described as follows: fluorescence polarization, saturation binding: increasing PDZ1-2 on 0.5 nM probe.

As a reminder, the Ki is the dissociation constant of the complex between target and ligand, obtained from inhibition or displacement. The low end stands for higher affinity, the high end for lower affinity. For orientation: Kd means the concentration at which binding is half-saturated. A higher Kd goes with lower affinity.

Read-outs that look alike come from different tables or passages of the source. Where no end group is shown, it is not given here.

B1: NPEG4(IETAV)2 (AB141) (peptide)
peptide: IETAV
modifications: not checked
On to B1, for which the Ki in assay [1] is 9.3 nM; in assay [2], 9.5 nM.

B2: PEG4(IETAV)2 (AB125) (peptide)
peptide: IETAV
modifications: not checked
B2 had a Ki in assay [2] of 9.5 nM.

B3: 5-FAM-labeled NPEG4(IETAV)2 probe, AB143 (peptide)
peptide: IETAV
modifications: also: dimer: two IETAV chains on NPEG4 scaffold, 5-FAM label, position not given here
Turning to B3, the Kd in assay [3] turned out to be 7.8 nM.
